# Measured values as given in patent US20240279333A1 (SYSTIMMUNE, published 2024).
# B1: SI-39E29 (806 x 284A10 x PL221 x 420H5) (antibody)
# heavy: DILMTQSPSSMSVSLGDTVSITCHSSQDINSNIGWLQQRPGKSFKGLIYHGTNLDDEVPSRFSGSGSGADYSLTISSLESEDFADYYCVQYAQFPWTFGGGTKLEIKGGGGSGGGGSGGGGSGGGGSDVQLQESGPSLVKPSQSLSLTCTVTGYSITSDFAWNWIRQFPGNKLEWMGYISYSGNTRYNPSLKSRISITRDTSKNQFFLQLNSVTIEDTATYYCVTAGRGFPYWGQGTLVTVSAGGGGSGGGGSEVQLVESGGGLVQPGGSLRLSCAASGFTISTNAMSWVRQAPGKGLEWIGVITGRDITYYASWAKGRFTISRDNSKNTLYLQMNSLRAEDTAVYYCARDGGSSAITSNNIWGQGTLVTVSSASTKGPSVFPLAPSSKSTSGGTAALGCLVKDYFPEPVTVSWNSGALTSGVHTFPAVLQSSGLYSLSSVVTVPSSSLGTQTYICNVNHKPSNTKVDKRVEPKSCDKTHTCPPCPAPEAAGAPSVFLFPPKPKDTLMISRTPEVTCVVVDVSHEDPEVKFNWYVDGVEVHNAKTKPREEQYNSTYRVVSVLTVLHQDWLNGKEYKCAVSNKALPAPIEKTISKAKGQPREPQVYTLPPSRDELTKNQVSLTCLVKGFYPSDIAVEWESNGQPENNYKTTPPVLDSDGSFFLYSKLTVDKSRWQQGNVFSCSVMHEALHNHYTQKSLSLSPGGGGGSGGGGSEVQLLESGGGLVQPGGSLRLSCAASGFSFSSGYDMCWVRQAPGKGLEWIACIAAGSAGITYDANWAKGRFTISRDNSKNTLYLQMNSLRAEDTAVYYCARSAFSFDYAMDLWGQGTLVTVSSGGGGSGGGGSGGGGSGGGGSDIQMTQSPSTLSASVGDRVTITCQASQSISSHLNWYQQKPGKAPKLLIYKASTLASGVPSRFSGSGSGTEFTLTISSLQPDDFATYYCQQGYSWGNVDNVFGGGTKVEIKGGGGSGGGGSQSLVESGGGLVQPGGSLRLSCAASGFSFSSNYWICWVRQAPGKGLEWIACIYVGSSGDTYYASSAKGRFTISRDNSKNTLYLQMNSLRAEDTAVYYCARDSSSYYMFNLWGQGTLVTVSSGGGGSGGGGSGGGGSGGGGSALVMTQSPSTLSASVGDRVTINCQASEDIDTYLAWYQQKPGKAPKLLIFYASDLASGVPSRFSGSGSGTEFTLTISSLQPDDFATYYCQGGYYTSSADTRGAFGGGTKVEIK
# light: DVVMTQSPSTLSASVGDRVTINCQASESISSWLAWYQQKPGKAPKLLIYEASKLASGVPSRFSGSGSGTEFTLTISSLQPDDFATYYCQGYFYFISRTYVNSFGGGTKVEIKRTVAAPSVFIFPPSDEQLKSGTASVVCLLNNFYPREAKVQWKVDNALQSGNSQESVTEQDSKDSTYSLSSTLTLSKADYEKHKVYACEVTHQGLSSPVTKSFNRGEC
# notes: Tetra-specific antibody, symmetric dimer
# B2: SI-39E23 (PL230 x 806 x 420H5 x 284A10) (antibody)
# heavy: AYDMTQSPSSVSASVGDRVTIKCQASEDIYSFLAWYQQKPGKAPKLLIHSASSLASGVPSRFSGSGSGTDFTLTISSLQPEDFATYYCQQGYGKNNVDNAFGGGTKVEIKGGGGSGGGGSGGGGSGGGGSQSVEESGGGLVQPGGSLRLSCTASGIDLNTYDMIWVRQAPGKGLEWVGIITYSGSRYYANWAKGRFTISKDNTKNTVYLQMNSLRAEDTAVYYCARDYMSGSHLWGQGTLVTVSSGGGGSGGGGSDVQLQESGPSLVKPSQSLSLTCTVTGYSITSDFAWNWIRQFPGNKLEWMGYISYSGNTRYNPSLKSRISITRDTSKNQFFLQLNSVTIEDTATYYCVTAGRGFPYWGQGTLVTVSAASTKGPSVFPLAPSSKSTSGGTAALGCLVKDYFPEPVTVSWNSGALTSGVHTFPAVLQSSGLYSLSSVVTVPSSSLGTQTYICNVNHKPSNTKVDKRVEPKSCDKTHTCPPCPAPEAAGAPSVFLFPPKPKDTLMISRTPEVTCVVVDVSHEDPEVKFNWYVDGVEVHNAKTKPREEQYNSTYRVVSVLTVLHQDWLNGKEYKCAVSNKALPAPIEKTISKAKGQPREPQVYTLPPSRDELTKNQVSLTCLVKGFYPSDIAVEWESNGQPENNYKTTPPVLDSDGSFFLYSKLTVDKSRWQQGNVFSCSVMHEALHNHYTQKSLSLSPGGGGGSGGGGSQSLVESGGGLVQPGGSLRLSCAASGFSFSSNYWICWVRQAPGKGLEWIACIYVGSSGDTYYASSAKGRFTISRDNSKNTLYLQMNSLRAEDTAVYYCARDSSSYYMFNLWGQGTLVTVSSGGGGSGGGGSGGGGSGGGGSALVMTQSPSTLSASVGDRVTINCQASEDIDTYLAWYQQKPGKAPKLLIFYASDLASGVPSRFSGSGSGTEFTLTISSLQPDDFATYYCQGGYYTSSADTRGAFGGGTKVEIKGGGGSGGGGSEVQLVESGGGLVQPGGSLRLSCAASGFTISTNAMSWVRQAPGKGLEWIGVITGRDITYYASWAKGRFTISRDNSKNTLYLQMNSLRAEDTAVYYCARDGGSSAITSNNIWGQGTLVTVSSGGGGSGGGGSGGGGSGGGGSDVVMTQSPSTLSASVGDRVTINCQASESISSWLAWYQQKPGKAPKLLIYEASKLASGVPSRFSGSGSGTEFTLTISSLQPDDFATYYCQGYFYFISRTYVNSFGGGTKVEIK
# light: DILMTQSPSSMSVSLGDTVSITCHSSQDINSNIGWLQQRPGKSFKGLIYHGTNLDDEVPSRFSGSGSGADYSLTISSLESEDFADYYCVQYAQFPWTFGGGTKLEIKRTVAAPSVFIFPPSDEQLKSGTASVVCLLNNFYPREAKVQWKVDNALQSGNSQESVTEQDSKDSTYSLSSTLTLSKADYEKHKVYACEVTHQGLSSPVTKSFNRGEC
# notes: as for B1
# B3: SI-39E18 (284A10 x 806 x PL221 x 420H5) (antibody)
# heavy: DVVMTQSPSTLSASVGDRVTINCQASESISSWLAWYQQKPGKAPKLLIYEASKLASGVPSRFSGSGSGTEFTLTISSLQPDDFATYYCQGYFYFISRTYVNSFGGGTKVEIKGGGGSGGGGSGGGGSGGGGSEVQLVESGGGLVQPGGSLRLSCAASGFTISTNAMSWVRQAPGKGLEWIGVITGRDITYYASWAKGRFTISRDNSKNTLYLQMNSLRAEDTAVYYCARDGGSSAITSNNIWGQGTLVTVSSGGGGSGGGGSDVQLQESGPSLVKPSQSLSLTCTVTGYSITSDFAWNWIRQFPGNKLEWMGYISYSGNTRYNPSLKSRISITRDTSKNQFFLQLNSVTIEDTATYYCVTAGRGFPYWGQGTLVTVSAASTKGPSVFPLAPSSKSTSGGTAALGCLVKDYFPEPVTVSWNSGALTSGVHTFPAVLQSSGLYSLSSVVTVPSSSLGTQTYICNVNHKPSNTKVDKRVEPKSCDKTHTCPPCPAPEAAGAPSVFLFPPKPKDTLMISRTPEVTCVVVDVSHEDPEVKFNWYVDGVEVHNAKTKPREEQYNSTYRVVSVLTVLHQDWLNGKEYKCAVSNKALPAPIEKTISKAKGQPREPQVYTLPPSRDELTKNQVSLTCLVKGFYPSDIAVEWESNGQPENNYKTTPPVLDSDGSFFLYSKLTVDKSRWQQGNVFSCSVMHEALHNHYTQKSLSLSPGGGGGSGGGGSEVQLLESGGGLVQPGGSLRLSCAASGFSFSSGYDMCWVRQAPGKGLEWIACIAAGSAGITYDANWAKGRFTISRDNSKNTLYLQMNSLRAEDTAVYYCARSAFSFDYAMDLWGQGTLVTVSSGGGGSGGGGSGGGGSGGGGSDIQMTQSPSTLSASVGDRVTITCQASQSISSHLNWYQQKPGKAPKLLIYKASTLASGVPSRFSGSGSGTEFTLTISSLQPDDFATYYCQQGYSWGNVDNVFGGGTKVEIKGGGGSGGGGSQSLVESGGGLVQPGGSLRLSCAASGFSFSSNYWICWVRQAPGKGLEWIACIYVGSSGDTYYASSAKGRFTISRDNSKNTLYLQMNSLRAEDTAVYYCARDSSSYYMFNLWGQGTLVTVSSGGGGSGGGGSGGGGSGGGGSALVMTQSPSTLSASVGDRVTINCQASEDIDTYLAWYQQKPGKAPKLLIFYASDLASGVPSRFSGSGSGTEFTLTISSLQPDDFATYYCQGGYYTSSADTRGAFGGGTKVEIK
# light: DILMTQSPSSMSVSLGDTVSITCHSSQDINSNIGWLQQRPGKSFKGLIYHGTNLDDEVPSRFSGSGSGADYSLTISSLESEDFADYYCVQYAQFPWTFGGGTKLEIKRTVAAPSVFIFPPSDEQLKSGTASVVCLLNNFYPREAKVQWKVDNALQSGNSQESVTEQDSKDSTYSLSSTLTLSKADYEKHKVYACEVTHQGLSSPVTKSFNRGEC
# notes: as for B1
# B4: SI-39E4 (PL230 x 806 x 284A10 x 420H5) (antibody)
# heavy: not shown
# light: DILMTQSPSSMSVSLGDTVSITCHSSQDINSNIGWLQQRPGKSFKGLIYHGTNLDDEVPSRFSGSGSGADYSLTISSLESEDFADYYCVQYAQFPWTFGGGTKLEIKRTVAAPSVFIFPPSDEQLKSGTASVVCLLNNFYPREAKVQWKVDNALQSGNSQESVTEQDSKDSTYSLSSTLTLSKADYEKHKVYACEVTHQGLSSPVTKSFNRGEC
# notes: Tetra-specific antibody, symmetric dimer; also called SI-39E04; 39 E04
# B5: SI-35E18 (460C3-L1H1-scFv x PL230C6-Fab x 323H7-H4L1-scFv x 284A10-H1L1-scFv) (antibody, human IgG1, kappa)
# heavy: not shown
# light: AYDMTQSPSSVSASVGDRVTIKCQASEDIYSFLAWYQQKPGKAPKLLIHSASSLASGVPSRFSGSGSGTDFTLTISSLQPEDFATYYCQQGYGKNNVDNAFGGGTKVEIKRTVAAPSVFIFPPSDEQLKSGTASVVCLLNNFYPREAKVQWKVDNALQSGNSQESVTEQDSKDSTYSLSSTLTLSKADYEKHKVYACEVTHQGLSSPVTKSFNRGEC
# notes: as for B1
# B6: SI-39E13 (420H5 x PL230 x 284A10 x 806) (antibody, human IgG1, kappa)
# heavy: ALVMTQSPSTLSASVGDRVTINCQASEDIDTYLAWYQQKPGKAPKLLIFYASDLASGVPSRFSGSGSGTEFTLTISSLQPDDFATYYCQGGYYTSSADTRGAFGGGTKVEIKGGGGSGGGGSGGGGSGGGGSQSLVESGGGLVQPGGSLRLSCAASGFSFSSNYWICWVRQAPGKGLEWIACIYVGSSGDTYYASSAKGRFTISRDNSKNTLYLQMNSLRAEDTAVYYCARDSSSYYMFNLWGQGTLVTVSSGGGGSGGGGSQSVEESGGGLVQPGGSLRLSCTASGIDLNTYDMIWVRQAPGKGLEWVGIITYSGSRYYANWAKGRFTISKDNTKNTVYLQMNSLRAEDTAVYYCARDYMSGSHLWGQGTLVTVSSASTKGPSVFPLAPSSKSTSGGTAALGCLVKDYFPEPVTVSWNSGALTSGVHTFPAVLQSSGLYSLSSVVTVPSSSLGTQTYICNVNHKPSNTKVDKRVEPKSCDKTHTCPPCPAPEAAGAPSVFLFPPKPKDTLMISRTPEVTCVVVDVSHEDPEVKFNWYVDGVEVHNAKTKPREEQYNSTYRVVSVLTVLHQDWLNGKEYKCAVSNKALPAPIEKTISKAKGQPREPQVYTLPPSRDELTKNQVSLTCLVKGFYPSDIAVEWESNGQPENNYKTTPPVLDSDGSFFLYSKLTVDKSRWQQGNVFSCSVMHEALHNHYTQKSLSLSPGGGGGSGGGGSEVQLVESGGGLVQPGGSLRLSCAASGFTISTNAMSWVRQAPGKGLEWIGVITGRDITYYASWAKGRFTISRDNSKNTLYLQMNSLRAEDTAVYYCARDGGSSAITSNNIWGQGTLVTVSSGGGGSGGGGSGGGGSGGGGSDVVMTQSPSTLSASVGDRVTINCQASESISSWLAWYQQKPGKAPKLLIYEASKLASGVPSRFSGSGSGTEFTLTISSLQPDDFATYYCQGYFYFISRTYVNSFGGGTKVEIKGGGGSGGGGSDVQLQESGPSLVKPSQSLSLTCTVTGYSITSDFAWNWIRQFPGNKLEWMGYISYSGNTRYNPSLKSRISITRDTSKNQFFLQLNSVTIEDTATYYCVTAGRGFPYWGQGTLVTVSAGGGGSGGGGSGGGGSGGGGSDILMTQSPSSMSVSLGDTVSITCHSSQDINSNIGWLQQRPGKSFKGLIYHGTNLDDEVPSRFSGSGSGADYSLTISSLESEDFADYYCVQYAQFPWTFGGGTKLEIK
# light: AYDMTQSPSSVSASVGDRVTIKCQASEDIYSFLAWYQQKPGKAPKLLIHSASSLASGVPSRFSGSGSGTDFTLTISSLQPEDFATYYCQQGYGKNNVDNAFGGGTKVEIKRTVAAPSVFIFPPSDEQLKSGTASVVCLLNNFYPREAKVQWKVDNALQSGNSQESVTEQDSKDSTYSLSSTLTLSKADYEKHKVYACEVTHQGLSSPVTKSFNRGEC
# notes: as for B1
# B7: SI-35E26 (466F6 x PL230C6 x 330F11 x 284A10) (antibody, human IgG1, kappa)
# heavy: not shown
# light: AYDMTQSPSSVSASVGDRVTIKCQASEDIYSFLAWYQQKPGKAPKLLIHSASSLASGVPSRFSGSGSGTDFTLTISSLQPEDFATYYCQQGYGKNNVDNAFGGGTKVEIKRTVAAPSVFIFPPSDEQLKSGTASVVCLLNNFYPREAKVQWKVDNALQSGNSQESVTEQDSKDSTYSLSSTLTLSKADYEKHKVYACEVTHQGLSSPVTKSFNRGEC
# notes: Tetra-specific antibody, symmetric dimer; also called '26' in 'SI-3524, 25, and 26'
# B8: SI-39E10 (420H5 x PL230 x 806 x 284A10) (antibody, human IgG1, kappa)
# heavy: not shown
# light: AYDMTQSPSSVSASVGDRVTIKCQASEDIYSFLAWYQQKPGKAPKLLIHSASSLASGVPSRFSGSGSGTDFTLTISSLQPEDFATYYCQQGYGKNNVDNAFGGGTKVEIKRTVAAPSVFIFPPSDEQLKSGTASVVCLLNNFYPREAKVQWKVDNALQSGNSQESVTEQDSKDSTYSLSSTLTLSKADYEKHKVYACEVTHQGLSSPVTKSFNRGEC
# notes: as for B1
# B9: SI-35E24 (460C3 x PL230C6 x 330F11 x 284A10) (antibody, human IgG1, kappa)
# heavy: not shown
# light: AYDMTQSPSSVSASVGDRVTIKCQASEDIYSFLAWYQQKPGKAPKLLIHSASSLASGVPSRFSGSGSGTDFTLTISSLQPEDFATYYCQQGYGKNNVDNAFGGGTKVEIKRTVAAPSVFIFPPSDEQLKSGTASVVCLLNNFYPREAKVQWKVDNALQSGNSQESVTEQDSKDSTYSLSSTLTLSKADYEKHKVYACEVTHQGLSSPVTKSFNRGEC
# notes: Tetra-specific antibody, symmetric dimer; also called SI-3524
# B10: SI-35E25 (420H5 x PL230C6 x 330F11 x 284A10) (antibody, human IgG1, kappa)
# heavy: not shown
# light: AYDMTQSPSSVSASVGDRVTIKCQASEDIYSFLAWYQQKPGKAPKLLIHSASSLASGVPSRFSGSGSGTDFTLTISSLQPEDFATYYCQQGYGKNNVDNAFGGGTKVEIKRTVAAPSVFIFPPSDEQLKSGTASVVCLLNNFYPREAKVQWKVDNALQSGNSQESVTEQDSKDSTYSLSSTLTLSKADYEKHKVYACEVTHQGLSSPVTKSFNRGEC
# notes: Tetra-specific antibody, symmetric dimer; also called '25' in 'SI-3524, 25, and 26'
# Assays:
# [1] = molecular target: PD-L1 protein antigen (immobilized on the sensor) (UniProt Q9NZQ7 19-238, limits assumed); test: Octet RED96, antigen immobilized
# [2] = molecular target: T1, CD3 e/d antigen (immobilized on the sensor) (UniProt P07766 23-126; P04234 22-105); test: Octet RED96, antigen immobilized
# T1 construct: 'e/d' read as epsilon/delta; construct not described
# [3] = molecular target: 4-1BB protein antigen (immobilized on the sensor) (UniProt Q07011 24-186, limits assumed); test: Octet RED96, antigen immobilized
# [4] = molecular target: T2, human 4-1BB on transfected CHO cells (human, UniProt Q07011 24-255); test: FACS on human 4-1BB transfected CHO cells, PE goat anti-human IgG Fc secondary; y axis without label
# T2 construct: whole, on cells; also called 41BB expressing CHO cells; human 41BB transfected CHO cells
# [5] = molecular target: T3, human PD-L1 on transfected CHO cells (human, UniProt Q9NZQ7 19-290); test: FACS on human PD-L1 transfected CHO cells, PE goat anti-human IgG Fc secondary; y axis without label
# T3 construct: whole, on cells; also called PD-L1 expressing CHO cells; human PD-L1 transfected CHO cells
# [6] = molecular target: T4, full length human ROR1 stably expressed on CHO cells (human, UniProt Q01973 30-937); test: FACS on CHO cells stably expressing full length human ROR1, PE goat anti-human IgG Fc secondary; y axis without label
# T4 construct: whole, on cells; also called ROR1-CHO cells; human ROR1 transfected CHO cells
Binder,Kd [1] [nM],Response [1],koff [1] [s⁻¹],kon [1] [M⁻¹ s⁻¹],Kd [2] [nM],Response [2],koff [2] [s⁻¹],kon [2] [M⁻¹ s⁻¹],Kd [3] [nM],Response [3],koff [3] [s⁻¹],kon [3] [M⁻¹ s⁻¹],binding result [4],binding result [5],binding result [6]
B1,0.283,1.72,0.000106,376000,0.475,1.85,7.86e-05,166000,–,–,–,–,–,–,–
B2,0.0402,1.9,1.94e-05,483000,0.207,2.65,2.54e-05,123000,0.696,2.02,0.000141,203000,–,–,–
B3,0.168,1.83,6.37e-05,379000,0.632,1.76,0.00011,174000,0.393,2.02,9.24e-05,235000,–,–,–
B4,0.0723,2.15,2.41e-05,333000,< 0.001,1.97,< 1e-07,86100,0.354,2.42,5.91e-05,167000,–,–,–
B5,–,–,–,–,–,–,–,–,–,–,–,–,binds,binds,binds
B6,0.0801,1.92,3.32e-05,415000,< 0.001,1.8,< 1e-07,104000,0.117,2.47,2.65e-05,227000,–,–,–
B7,–,–,–,–,–,–,–,–,–,–,–,–,–,–,no binding (tested: 10 nM)
B8,0.0685,1.94,2.61e-05,381000,< 0.001,2.24,< 1e-07,110000,0.0356,2.63,7.43e-06,209000,–,–,–
B9,–,–,–,–,–,–,–,–,–,–,–,–,–,–,no binding (tested: 10 nM)
B10,–,–,–,–,–,–,–,–,–,–,–,–,–,–,no binding (tested: 10 nM)
